27 sequences from the domain aggregation screens of Martell et al. (2025) can be followed below.

The data set in a line: soluble fraction after stress (log2 fold change); higher = more stays soluble; pooled small domains, quantitative proteomics. To be noted: stress: 50 degC. A digest of the protocol: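 The measure of aggregation propensity here is the base-two logarithm of the fold change in the soluble amount of each protein after stress. A higher value means more of that protein stays in solution. Stress was applied at 50°C to pooled libraries of small protein domains, read out by high-throughput quantitative proteomics.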
For the sequence “HMAAEGARNNSLFNSLRERALEVSSHNELEQIAFKMNETNIPPLRASEVISVVNSVWKNRISNQIIP”, the “soluble fraction (log2)” value is 0.155.

For the sequence “HMAAFGDLLSELRRDMNMTQDELAKVLFVSPGTISNYENNIHFPDVPKLKQIAQYFGVTTDYLLG”, the “soluble fraction (log2)” value is -0.405.

Turning to “HMAAINTYQVRKIYAIAGALGMKSRDGDDALHDLVFGMTGKQHISGLTSAEAYDVIAELEKKQ”, the “soluble fraction (log2)” value is -1.66.

In the case of “HMAALKVAVLTVSDTRTQETDTSGAFLEGALREAGHEIADRQIVIDDVYQLRAIVSQWIADPEVEVILT”, the “soluble fraction (log2)” value was -0.217.

For “HMAALTADEAKQIALKHAGVAESDVQRLKVEQDRDDGRLLYEVEWDVGRTEYSYEIDANTGDILNYEKDV”, the “soluble fraction (log2)” value amounted to 0.254.

With “HMAANKIDEDRNTELLQVIQNKFPDADAATKKSVKEIMKEHDIPNFKNADDIPTAVLEQIVKVLNQ”, the “soluble fraction (log2)” value stood at 0.323.

For the sequence “HMAAPLTDRETEVLTLLARGLINKQIAEELHIGLTTVITHRRNIMEKLRVRSLAELILRAVAAGYVDAGR”, the “soluble fraction (log2)” value was -1.77.

Regarding “HMAARKDLIAGEDAEGRLDAWLAAALDGEFSRNRVKALIEQGAVAINDVAVTEPKRKIRPGDRLSIVLPEP”, the “soluble fraction (log2)” value was 0.339.

Regarding “HMAARLMRALIPYAQGGLLAKLHEDGQVLSEEYTGEGIEVKALADEQLFGRLTVQLGEQAVSWQD”, the “soluble fraction (log2)” value came out at 0.16.

On to “HMAASTPGTVTGSVVNVRPDPSTNNDRIGVIYQGTKVEILAQVGEWYNIQFGPVSGWVHKDYISTGA”, for which the “soluble fraction (log2)” value worked out at 0.00638.

Take “HMAATISPEIQAEAEKAAALGVESIKNFMASLKEKNPEQHALFSDSEKRRLYAIARKADLNTTQQG”: the “soluble fraction (log2)” value is -0.103.

As for “HMAAVPQPQRSETIVYIGGRKFYVHTVQAGETLYSIARLYGVSEQTLVANNPTMADVVKADQNVRIPVPA”, the “soluble fraction (log2)” value is -0.272.

Regarding “HMAAYRLIPLGNSNKDFETYQEAIQYMRDKLDESSKAFEEGKQNWVYSGRVYGVPWSDGRTTFTVDLVPKV”, the “soluble fraction (log2)” value was determined as 0.164.

For “HMADASVTAYFKIAEDRLQGRLPDTFSEASLKARYQLTPAQLTAVLTRIAQEGWAERKPGYGWAFSSML”, the “soluble fraction (log2)” value was -1.4.

On to “HMADEIMYPVQVNGKVRAEIFVAADQSKNKELVLEMAKSEERVQKYLEEGNLIKEIFVPGRIVNLVI”, for which the “soluble fraction (log2)” value is 0.0273.

As for “HMADEIQIGLQKAIQSLPEKQKLVFSMRYYDEIPYDEMSKILDMSVGTLKTNYHYAKQKIEDFLQNH”, the “soluble fraction (log2)” value is -1.05.

On to “HMADFIGMNATVTERIFPQGFGRISFVYEGNSISEPARSEDGKEIPTGTSVVVLEVRDKVYIVQPL”, for which the “soluble fraction (log2)” value was -0.221.

For the sequence “HMADGDIIPEGQRDATLASLAGSMRARGMTEAEILAALQVTNETRVRPPMALADLERIARSIGRYEPGK”, the “soluble fraction (log2)” value was found to be 0.0818.

Regarding “HMADKGTITNQQEKILKALILFPEGASIEEIQKAADLGIDKRQFQRRLNTLIESGQINRTGKSRGTKYHTI”, the “soluble fraction (log2)” value was determined as 0.0555.

Turning to “HMADLKVGFVHRAGSVLERELDDVLEALEMYRSALAIDPSHKPSLDALTRISQLADYREQAAEILEPLPR”, the “soluble fraction (log2)” value was -0.576.

Regarding “HMADLNFHQQIRSLPPEQQEILLLRFGQELTLRQIAQVTGVPLRTVQSRLRAALKKLKSQLEKEE”, the “soluble fraction (log2)” value is -0.39.

Consider “HMADLPQATALADVKGDVQMQGIQFGYDPEKIIIHDLNLHARPGSLVAIVGPTGAGKTTIINLLMRFYD”, for which the “soluble fraction (log2)” value was -0.313.

Consider “HMADLVYLRKRLQDAIAQLPEDMRTAYTLFQIARRSIREIAELTGASESLVKVRIHRAKGKLQELLEDLR”, for which the “soluble fraction (log2)” value is -1.87.

With “HMADPAVLIAELFRAMPEKRFSVKNLISATGAETREQKDYVREVVHSLSREGMIEQVAEGKYRLSASE”, the “soluble fraction (log2)” value came to 0.171.

In the case of “HMADQVLVMTRAVGQGDIVRNADIGLTSVAVDRAVATIPASQLDKIVGRHALVDLSPGQLLGSHSVGE”, the “soluble fraction (log2)” value worked out at 0.035.

Turning to “HMADRDKYIIMGQQLLRAAFEHFGKKATDKALENAANKLRISDVPELYARLGSAELQPRDVINVIFPD”, the “soluble fraction (log2)” value was -0.0534.

For “HMADRLITLSEVASLLRVSRHTVQAWISPSSPNHRPEFAIMARHAGRRTVFIEAEVTAWLDQRRG”, the “soluble fraction (log2)” value was -1.95.
